Patent US20020102250A1, “Recombinant S. aureus peptide deformylase” (priority 2000, published 2002)

Legend:
[1] = Stability of Fe forms of pdf at serial dilutions with or without catalase; pdf assay coupled to Vibrio aminopeptidase; type: biochemical
Procedure: A description of the optimized assay conditions is as follows. The final assay solution contained 50 mM Hepes, 10 mM NaCl, pH 7.0, 0.1% K-casein (Sigma Chemical Co.; St. Louis, Mo.), 100 micromolar formyl-Met-Leu-p-nitroanilide (prepared by standard methods and commercially available from Bachem Bioscience, Inc.; Philadelphia, Pa.; Catalog No. L2030), 5 nanograms of pdf protein (iron form) or 100 nanograms of pdf protein (zinc form), and V. proteolytica aminopeptidase.
(A) 25 microliters of inhibitor in 15% dimethyl sulfoxide (DMSO) (maximum) was pipetted into 96 well microtiter plates (Immulon II from Dynex Technologies; Chantilly, Va.).
(B) 100 microliters of bulk assay solution was pipetted next. This solution is described as follows, and required that the reagents be mixed in the order shown below (enough for 100 assays):
(C) The plate was preincubated at room temperature for 10 minutes.
(D) Finally, 25 microliters of 0.6 mM f-Met-Leu-p-nitroanilide (prepared by adding 120 microliters of 20 mM stock in 100% MeOH to 3,880 microliters of assay buffer) was added.
(E) Each plate was examined in a SpectraMax 250 reader (Molecular Devices Corp.; Sunnyvale, Calif.) using an absorbance of 405 nm. Time points were taken every 20 seconds over a 30 minute time course at 25° C. Since oxidation might be an issue, the plate was mixed to begin the reaction, but not prior to subsequent time points. Addition of anti-oxidant reagents is not required, and preferably reducing agents are not added. Each line was checked for linearity over time and the resulting R^2 value was expected to be greater than about 0.98 for assay validity.
Expression of the iron form of S. aureus or E. coli pdf (known to be unstable) in E. coli was monitored after the addition of 1.6 mM FeCl3 in the media (Luria broth). Incubation was allowed to proceed for 1 hour prior to the addition of IPTG (0.4 mM). Induction continued for 3 hours at 37° C. Cells were isolated and extracted in the presence of catalase (10 micrograms/ml). The purpose of the catalase was to act as an oxygen scavenger to prevent the inactivation of the Fe form of the E. coil pdf. The extracts were subjected to Ni-NTA chromatography for the purification of the C-terminally His tagged versions of both the E. coli and S. aureus pdf proteins. The purified proteins (concentrated to at least 1 mg/ml by ultrafiltration using a membrane available from Amicon; Bedford, Mass.) were stored in the presence of 10 micrograms/ml (minimum concentration) catalase. To examine the stability of the Fe forms of the pdf proteins, dilutions of the proteins were made in the presence or absence of catalase, followed by assays of the enzymes (serially diluted) in the presence or absence of catalase (at 100 micrograms/ml). Assays were run using formyl-Met-Leu-p-nitroanilide as substrate, coupled to the Vibrio aminopeptidase.
The results, which depict linear reactions catalyzed by pdf, are shown in FIG. 2 for S. aureus pdf and FIG. 3 for E. coli pdf. […] The rates shown are in mOD/minute, and each line represents a different concentration of the pdf in nanogram amounts as listed in the legend. […] This is consistent with a significant loss of enzyme activity in the absence of catalase only for the E. coli enzyme. See Rajagopalan et al., J. Amer. Chem. Soc., 119:12418-19 (1997).

[2] = Fe complex, as reported in prior work; cited from earlier work

B1: E. coli pdf: Iron form of E. coli peptide deformylase, C-terminally His tagged, known to be unstable, used for comparison (protein, UniProt P0A6K3 2-169, looked up)
Peptide deformylase: SVLQVLHIPDERLRKVAKPVEEVNAEIQRIVDDMFETMYAEEGIGLAATQVDIHQRIIVIDVSENRDERLVLINPELLEKSGETGIEEGCLSIPEQRALVPRAEKVKIRALDRDGKPFELEADGLLAICIQHEMDHLVGKLFMDYLSPLKQQRIRQKVEKLDRLKARA
modifications: C-terminal His tag; iron form
Vmax ([1]; 125 ng pdf, with added catalase): 8.4 mOD/minute | Vmax ([1]; 125 ng pdf, without added catalase): 2.4 mOD/minute | Vmax ([1]; 250 ng pdf, with added catalase): 19.2 mOD/minute | Vmax ([1]; 250 ng pdf, without added catalase): 3.7 mOD/minute | Vmax ([1]; 500 ng pdf, with added catalase): 45.1 mOD/minute | Vmax ([1]; 500 ng pdf, without added catalase): 6.5 mOD/minute | Vmax ([1]; 1000 ng pdf, with added catalase): 133 mOD/minute | Vmax ([1]; 1000 ng pdf, without added catalase): 18.9 mOD/minute | pdf activity as a function of dilution, with versus without catalase in the assay solution ([1]; catalase at 100 micrograms/ml or absent): rapidly loses activity

B2: Fe complex of pdf: Fe complex of peptide deformylase of the prior art (background, E. coli enzyme context) (protein, UniProt P0A6K3 2-169, looked up)
Peptide deformylase: B1 Peptide deformylase
modifications: iron form
half-life [2]: around 30 seconds
